From PMC3391105

Experiments:
[1] = target: soluble mouse FcRn, GST-tagged (mFcRn heavy chain ectodomains with human β2-microglobulin) (mouse | human) (UniProt Q61559); test: SPR
[2] = target: soluble human FcRn, GST-tagged (hFcRn heavy chain ectodomains with human β2-microglobulin) (human) (UniProt P55899); test: SPR
Chain of UniProt P55899 (P55899 24-297, chain 1 of 2): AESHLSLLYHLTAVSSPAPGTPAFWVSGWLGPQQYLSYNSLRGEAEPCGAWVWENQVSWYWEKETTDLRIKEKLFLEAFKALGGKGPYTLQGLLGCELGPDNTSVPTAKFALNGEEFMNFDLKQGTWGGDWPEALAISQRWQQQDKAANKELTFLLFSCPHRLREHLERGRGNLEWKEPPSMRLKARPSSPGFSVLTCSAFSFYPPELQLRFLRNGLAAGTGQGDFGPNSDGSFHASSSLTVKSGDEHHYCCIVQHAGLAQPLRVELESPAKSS
Chain of UniProt P55899 (P61769 21-119, chain 2 of 2, further chain): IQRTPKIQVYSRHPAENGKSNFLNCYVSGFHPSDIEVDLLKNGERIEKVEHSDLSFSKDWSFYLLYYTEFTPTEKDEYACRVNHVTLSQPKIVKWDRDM

Chain of UniProt Q61559 (Q61559 22-297, chain 1 of 2): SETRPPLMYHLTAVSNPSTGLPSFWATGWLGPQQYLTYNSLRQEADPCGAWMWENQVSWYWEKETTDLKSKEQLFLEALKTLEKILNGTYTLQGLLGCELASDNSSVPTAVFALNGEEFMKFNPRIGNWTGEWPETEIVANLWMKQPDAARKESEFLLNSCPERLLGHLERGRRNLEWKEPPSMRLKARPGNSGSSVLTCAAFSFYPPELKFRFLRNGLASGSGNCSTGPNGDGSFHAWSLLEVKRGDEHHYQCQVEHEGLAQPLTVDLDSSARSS
Chain of UniProt Q61559 (P61769 21-119, chain 2 of 2, further chain): as the sequence (P61769 21-119, chain 2 of 2, further chain) above

Substance | KD2 (heterogeneous ligand model) [1] [nM] | KD1 (heterogeneous ligand model) [1] [nM] | KD1 (heterogeneous ligand model) [2] [nM] | KD2 (heterogeneous ligand model) [2] [nM]
anti-CEA cT84.66 scFv-Fc WT (nonmutated) (Fc fusion) | 43.8 |  |  | 
anti-CEA cT84.66 scFv-Fc H435Q (Fc fusion) | 400 | 80.9 |  | 
anti-CEA cT84.66 scFv-Fc H435R (Fc fusion) | 122 | 1.8 | 9.4 | 197
